Measurements taken from US20210275653A1.

Biological target: HLA-A*24 MHC class I molecule (peptide-receptive after UV-ligand exchange) (human)
Assay: UV-ligand exchange, anti-b2m ELISA; grade of peptide exchange yield (>=10% = +; >=20% = ++; >=50 = +++; >=75% = ++++)

peptide exchange yield [%]	Binder
20 to 50	IYTRVTYYL [peptide … (SEQ ID No. 35)]
50 to 75	SYNDALLTF [peptide … (SEQ ID No. 24)]
20 to 50	RYFKTPRKF [peptide … (SEQ ID No. 45)]
> 75	PYQLNASLFTF [peptide … (SEQ ID No. 32)]
> 75	SYTPVLNQF [peptide … (SEQ ID No. 47)]
50 to 75	TYIGQGYII [peptide … (SEQ ID No. 42)]
50 to 75	AYTSPPSFF [peptide … (SEQ ID No. 31)]
50 to 75	RYMWINQEL [peptide … (SEQ ID No. 36)]
50 to 75	AFSPDSHYLLF [peptide … (SEQ ID No. 34)]
50 to 75	SYSPAHARL [peptide … (SEQ ID No. 30)]
50 to 75	QYGKDFLTL [peptide … (SEQ ID No. 33)]
50 to 75	IYPDVTYAF [peptide … (SEQ ID No. 59)]
50 to 75	RYGSPINTF [peptide … (SEQ ID No. 29)]
50 to 75	AYSEKVTEF [peptide … (SEQ ID No. 54)]
50 to 75	AWAPKPYHKF [peptide … (SEQ ID No. 48)]
20 to 50	LFHPEDTGQVF [peptide … (SEQ ID No. 56)]
50 to 75	VYNTVSEGTHF [peptide … (SEQ ID No. 44)]
> 75	GYLQGLVSF [peptide … (SEQ ID No. 27)]
50 to 75	AYIKNGQLF [peptide … (SEQ ID No. 43)]
50 to 75	RYADDTFTPAF [peptide … (SEQ ID No. 26)]
> 75	YYAKEIHKF [peptide … (SEQ ID No. 28)]
> 75	LYFEKGEYF [peptide … (SEQ ID No. 55)]
20 to 50	GYIDKVRQL [peptide … (SEQ ID No. 58)]
50 to 75	RYLQKIEEF [peptide … (SEQ ID No. 41)]
50 to 75	IYEPYLAMF [peptide … (SEQ ID No. 25)]
